# Results published in publication PMC4471362.
# pKd: −log10 of the molar value.
# What was measured:
# [1] = system: Nc1ncnc2c1ncn2[C@@H]1O[C@H](COP(=O)(O)OP(=O)(O)OP(=O)(O)O)[C@@H](O)[C@H]1O; assay: purified protein; conditions: basal ATPase, buffer presumably as for PfHsp70-z (pH 7.5, MgCl2), kcat unit as printed
# [2] = molecular target: Plasmodium falciparum Hsp70-z (PfHsp70-z), recombinant (His)6-PfHsp70-z (Plasmodium falciparum); assay: SPR; ProteOn XPR36, GLC chip, ligand immobilised by amine coupling (PfHsp70-z, 187 RU); analyte 125-2000 nM at 50 ul/min; 25°C; PBS-Tween with 20 mM EDTA, pH 7.4; with 5 mM ADP; Langmuir model
# [3] = molecular target: Plasmodium falciparum Hsp70-z (PfHsp70-z), recombinant (His)6-PfHsp70-z (Plasmodium falciparum); assay: SPR; ProteOn XPR36, GLC chip, ligand immobilised by amine coupling (PfHsp70-z, 187 RU); analyte 125-2000 nM at 50 ul/min; 25°C; PBS-Tween with 20 mM EDTA, pH 7.4; no nucleotide; Langmuir model
# [4] = molecular target: Plasmodium falciparum Hsp70-z (PfHsp70-z), recombinant (His)6-PfHsp70-z (Plasmodium falciparum); assay: SPR; ProteOn XPR36, GLC chip, ligand immobilised by amine coupling (PfHsp70-z, 187 RU); analyte 125-2000 nM at 50 ul/min; 25°C; PBS-Tween with 20 mM EDTA, pH 7.4; with 5 mM ATP; Langmuir model
# hHsp70 (Homo sapiens) = hHsp70 (Homo sapiens) (UniProt P0DMV8); assay: SPR; conditions: cited from earlier work
# hHsp70, sequence (P0DMV8 2-641): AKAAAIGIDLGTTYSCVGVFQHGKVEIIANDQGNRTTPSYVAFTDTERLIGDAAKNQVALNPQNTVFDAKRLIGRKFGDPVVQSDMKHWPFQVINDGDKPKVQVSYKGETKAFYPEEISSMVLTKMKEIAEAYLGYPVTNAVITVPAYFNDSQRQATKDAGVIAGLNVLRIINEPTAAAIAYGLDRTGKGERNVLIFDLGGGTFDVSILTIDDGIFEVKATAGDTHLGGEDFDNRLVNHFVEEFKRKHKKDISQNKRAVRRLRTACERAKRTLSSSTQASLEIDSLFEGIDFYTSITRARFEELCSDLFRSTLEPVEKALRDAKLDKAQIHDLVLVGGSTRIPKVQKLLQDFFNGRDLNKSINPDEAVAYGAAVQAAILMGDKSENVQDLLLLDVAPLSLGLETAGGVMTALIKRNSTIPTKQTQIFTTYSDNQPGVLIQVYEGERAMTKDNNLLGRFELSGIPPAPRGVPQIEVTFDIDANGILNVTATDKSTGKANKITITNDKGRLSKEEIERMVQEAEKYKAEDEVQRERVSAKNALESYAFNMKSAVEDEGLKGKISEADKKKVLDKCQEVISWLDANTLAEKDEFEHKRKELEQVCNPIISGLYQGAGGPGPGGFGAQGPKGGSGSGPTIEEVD
substance,measurement,setting,value
PfHsp70-1 (Plasmodium falciparum 3D7),Km,[1],428 (+/- 5) μM
same,Vmax,[1],0.0246 µmol/min/mg
"Plasmodium falciparum Hsp70-z (PfHsp70-z), recombinant (His)6-PfHsp70-z (natural protein)",pKd,[2],7.94
same,koff,[2],7.6e-05 s⁻¹
same,kon,[2],6620 M⁻¹ s⁻¹
same,pKd,[3],8.10
same,koff,[3],9.54e-05 s⁻¹
same,kon,[3],12000 M⁻¹ s⁻¹
same,pKd,[4],7.95
same,koff,[4],3.2e-05 s⁻¹
same,kon,[4],2840 M⁻¹ s⁻¹
hHsp70 (from UniProt P0DMV8),pKd,hHsp70 (Homo sapiens),8.35
